Measured values: IntAct's records for PubMed 31515488

B1: Serine/threonine-protein kinase PAK 5 (Homo sapiens), Q9P286 (parent)
chain: MFGKKKKKIEISGPSNFEHRVHTGFDPQEQKFTGLPQQWHSLLADTANRPKPMVDPSCITPIQLAPMKTIVRGNKPCKETSINGLLEDFDNISVTRSNSLRKESPPTPDQGASSHGPGHAEENGFITFSQYSSESDTTADYTTEKYREKSLYGDDLDPYYRGSHAAKQNGHVMKMKHGEAYYSEVKPLKSDFARFSADYHSHLDSLSKPSEYSDLKWEYQRASSSSPLDYSFQFTPSRTAGTSGCSKESLAYSESEWGPSLDDYDRRPKSSYLNQTSPQPTMRQRSRSGSGLQEPMMPFGASAFKTHPQGHSYNSYTYPRLSEPTMCIPKVDYDRAQMVLSPPLSGSDTYPRGPAKLPQSQSKSGYSSSSHQYPSGYHKATLYHHPSLQSSSQYISTASYLSSLSLSSSTYPPPSWGSSSDQQPSRVSHEQFRAALQLVVSPGDPREYLANFIKIGEGSTGIVCIATEKHTGKQVAVKKMDLRKQQRRELLFNEVVIMRDYHHDNVVDMYSSYLVGDELWVVMEFLEGGALTDIVTHTRMNEEQIATVCLSVLRALSYLHNQGVIHRDIKSDSILLTSDGRIKLSDFGFCAQVSKEVPKRKSLVGTPYWMAPEVISRLPYGTEVDIWSLGIMVIEMIDGEPPYFNEPPLQAMRRIRDSLPPRVKDLHKVSSVLRGFLDLMLVREPSQRATAQELLGHPFLKLAGPPSCIVPLMRQYRHH
partner: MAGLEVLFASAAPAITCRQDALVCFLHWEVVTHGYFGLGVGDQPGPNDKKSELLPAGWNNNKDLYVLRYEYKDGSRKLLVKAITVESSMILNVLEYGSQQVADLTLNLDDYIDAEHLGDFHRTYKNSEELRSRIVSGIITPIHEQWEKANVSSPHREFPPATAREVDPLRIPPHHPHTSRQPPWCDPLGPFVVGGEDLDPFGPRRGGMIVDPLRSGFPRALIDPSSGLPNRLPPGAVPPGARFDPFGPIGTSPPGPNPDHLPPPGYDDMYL
B2: UBX domain-containing protein 2B (Homo sapiens), Q14CS0 (parent)
chain: MAEGGGPEPGEQERRSSGPRPPSARDLQLALAELYEDEVKCKSSKSNRPKATVFKSPRTPPQRFYSSEHEYSGLNIVRPSTGKIVNELFKEAREHGAVPLNEATRASGDDKSKSFTGGGYRLGSSFCKRSEYIYGENQLQDVQILLKLWSNGFSLDDGELRPYNEPTNAQFLESVKRGEIPLELQRLVHGGQVNLDMEDHQDQEYIKPRLRFKAFSGEGQKLGSLTPEIVSTPSSPEEEDKSILNAVVLIDDSVPTTKIQIRLADGSRLIQRFNSTHRILDVRNFIVQSRPEFAALDFILVTSFPNKELTDESLTLLEADILNTVLLQQLK
partner: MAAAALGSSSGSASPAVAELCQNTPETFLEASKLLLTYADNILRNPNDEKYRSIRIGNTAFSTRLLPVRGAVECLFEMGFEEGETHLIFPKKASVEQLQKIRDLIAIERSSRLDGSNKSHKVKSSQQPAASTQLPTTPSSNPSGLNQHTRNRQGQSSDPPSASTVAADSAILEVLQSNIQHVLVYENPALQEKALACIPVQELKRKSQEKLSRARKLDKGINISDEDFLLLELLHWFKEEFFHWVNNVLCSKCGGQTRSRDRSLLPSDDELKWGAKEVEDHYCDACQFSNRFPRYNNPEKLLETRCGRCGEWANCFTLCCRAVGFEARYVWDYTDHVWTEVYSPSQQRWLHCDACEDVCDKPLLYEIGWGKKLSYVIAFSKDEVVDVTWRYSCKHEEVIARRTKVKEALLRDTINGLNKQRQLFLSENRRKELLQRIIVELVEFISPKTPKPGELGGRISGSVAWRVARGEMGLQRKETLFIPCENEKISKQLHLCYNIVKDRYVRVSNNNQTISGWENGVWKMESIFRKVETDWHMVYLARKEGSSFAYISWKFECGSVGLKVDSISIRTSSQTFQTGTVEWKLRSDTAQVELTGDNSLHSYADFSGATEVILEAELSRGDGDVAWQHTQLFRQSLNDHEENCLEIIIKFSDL
B3: Ligand of Numb protein X 2 (Homo sapiens), Q8N448 (parent)
chain: MGTTSDEMVSVEQTSSSSLNPLCFECGQQHWTRENHLYNYQNEVDDDLVCHICLQPLLQPLDTPCGHTFCYKCLRNFLQEKDFCPLDRKRLHFKLCKKSSILVHKLLDKLLVLCPFSSVCKDVMQRCDLEAHLKNRCPGASHRRVALERRKTSRTQAEIENENGPTLLDPAGTLSPEADCLGTGAVPVERHLTSASLSTWSEEPGLDNPAFEESAGADTTQQPLSLPEGEITTIEIHRSNPYIQLGISIVGGNETPLINIVIQEVYRDGVIARDGRLLAGDQILQVNNYNISNVSHNYARAVLSQPCNTLHLTVLRERRFGNRAHNHSDSNSPREEIFQVALHKRDSGEQLGIKLVRRTDEPGVFILDLLEGGLAAQDGRLSSNDRVLAINGHDLKYGTPELAAQIIQASGERVNLTIARPGKPQPGNTIREAGNHSSSSQHHTPPPYYSRPSSHKDLTQCVTCQEKHITVKKEPHESLGMTVAGGRGSKSGELPIFVTSVPPHGCLARDGRIKRGDVLLNINGIDLTNLSHSEAVAMLKASAASPAVALKALEVQIVEEATQNAEEQPSTFSENEYDASWSPSWVMWLGLPSTLHSCHDIVLRRSYLGSWGFSIVGGYEENHTNQPFFIKTIVLGTPAYYDGRLKCGDMIVAVNGLSTVGMSHSALVPMLKEQRNKVTLTVICWPGSLV
partner: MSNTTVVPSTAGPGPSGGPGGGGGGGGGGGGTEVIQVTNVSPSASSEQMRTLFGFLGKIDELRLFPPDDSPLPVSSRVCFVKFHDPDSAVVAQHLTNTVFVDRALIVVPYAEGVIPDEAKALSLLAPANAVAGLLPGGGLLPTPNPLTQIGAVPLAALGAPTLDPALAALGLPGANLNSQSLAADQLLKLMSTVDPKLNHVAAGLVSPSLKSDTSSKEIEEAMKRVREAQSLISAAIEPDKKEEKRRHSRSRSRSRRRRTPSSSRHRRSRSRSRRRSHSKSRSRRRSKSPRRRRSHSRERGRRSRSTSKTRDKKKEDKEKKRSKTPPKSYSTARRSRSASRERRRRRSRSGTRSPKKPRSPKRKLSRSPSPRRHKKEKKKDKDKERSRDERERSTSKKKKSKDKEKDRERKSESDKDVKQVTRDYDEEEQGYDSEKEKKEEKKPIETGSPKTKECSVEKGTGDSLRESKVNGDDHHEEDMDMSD
B4: Cyclin-dependent kinase 4 inhibitor C (Homo sapiens), P42773 (parent)
chain: MAEPWGNELASAAARGDLEQLTSLLQNNVNVNAQNGFGRTALQVMKLGNPEIARRLLLRGANPDLKDRTGFAVIHDAARAGFLDTLQTLLEFQADVNIEDNEGNLPLHLAAKEGHLRVVEFLVKHTASNVGHRNHKGDTACDLARLYGRNEVVSLMQANGAGGATNLQ
partner: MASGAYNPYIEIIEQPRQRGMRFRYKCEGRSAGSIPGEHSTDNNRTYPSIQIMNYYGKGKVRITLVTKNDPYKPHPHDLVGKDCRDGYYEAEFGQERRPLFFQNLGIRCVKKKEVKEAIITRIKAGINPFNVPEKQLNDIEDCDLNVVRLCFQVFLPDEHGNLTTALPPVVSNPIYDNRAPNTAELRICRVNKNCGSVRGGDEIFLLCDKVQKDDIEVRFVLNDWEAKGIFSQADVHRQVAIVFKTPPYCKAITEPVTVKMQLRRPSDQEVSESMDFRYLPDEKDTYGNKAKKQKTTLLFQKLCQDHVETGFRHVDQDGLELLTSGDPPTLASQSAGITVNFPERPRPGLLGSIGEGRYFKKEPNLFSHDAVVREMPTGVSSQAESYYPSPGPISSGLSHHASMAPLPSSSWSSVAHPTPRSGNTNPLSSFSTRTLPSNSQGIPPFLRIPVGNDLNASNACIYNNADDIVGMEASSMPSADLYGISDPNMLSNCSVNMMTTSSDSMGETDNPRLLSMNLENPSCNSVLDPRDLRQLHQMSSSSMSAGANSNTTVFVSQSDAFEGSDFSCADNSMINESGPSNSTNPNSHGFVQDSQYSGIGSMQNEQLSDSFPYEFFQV
B5: Emerin (Homo sapiens), P50402 (parent)
chain: MDNYADLSDTELTTLLRRYNIPHGPVVGSTRRLYEKKIFEYETQRRRLSPPSSSAASSYSFSDLNSTRGDADMYDLPKKEDALLYQSKGYNDDYYEESYFTTRTYGEPESAGPSRAVRQSVTSFPDADAFHHQVHDDDLLSSSEEECKDRERPMYGRDSAYQSITHYRPVSASRSSLDLSYYPTSSSTSFMSSSSSSSSWLTRRAIRPENRAPGAGLGQDRQVPLWGQLLLFLVFVIVLFFIYHFMQAEEGNPF
partner: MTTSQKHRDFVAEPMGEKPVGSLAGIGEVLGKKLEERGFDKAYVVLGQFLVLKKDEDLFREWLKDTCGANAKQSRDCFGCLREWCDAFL

Variants of: B1
Settings: with psmf1_human PSMF1, Q92530

effect of a mutation on the interaction	Variant
with no effect	R335P

Variants of: B2
Settings: with ngly1_human NGLY1, Q96IV0

effect of a mutation on the interaction	Variant
with no effect	D109A

Variants of: B3
Settings: with srs11_human SRSF11, Q05519

effect of a mutation on the interaction	Variant
with no effect	S141A
disrupting interaction strength	Y266C
with no effect	S198P

Variants of: B4
Settings: with rel_human REL

effect of a mutation on the interaction	Variant
with no effect	T69A
disrupting interaction strength	V31L

Variants of: B5
Settings: with baf_human BANF1, O75531

effect of a mutation on the interaction	Variant
with no effect	R203H
with no effect	S54F
with no effect	G156S

Second part, the variant before the results:

Variant	effect of a mutation on the interaction
D72V	with no effect
P183T	with no effect
